Assay results published in PMC10247848.

Assays:
[1] = Pi release from G6P in HeLa lysates, 24 h; settings: glycan lost; control: wild type
[2] = Western blot, total hG6Pase-α in HeLa lysates, 24 h; settings: glycan lost; control: wild type

B1: human glucose-6-phosphatase-α (hG6Pase-α): N96A (protein)
parent chain: MEEGMNVLHDFGIQSTHYLQVNYQDSQDWFILVSVIADLRNAFYVLFPIWFHLQEAVGIKLLWVAVIGDWLNLVFKWILFGQRPYWWVLDTDYYSNTSVPLIKQFPVTCETGPGSPSGHAMGTAGVYYVMVTSTLSIFQGKIKPTYRFRCLNVILWLGFWAVQLNVCLSRIYLAAHFPHQVVAGVLSGIAVAETFSHIHSIYNASLKKYFLITFFLFSFAIGFYLLLKGLGVDLLWTLEKAQRWCEQPEWVHIDTTPFASLLKNLGTLFGLGLALNSSMYRESCKGKLSKWLPFRLSSIVASLVLLHVFDSLKPPSQVELVFYVLSFCKSAVVPLASVSVIPYCLAQVLGQPHKKSL
Question: What does the source list for B1?
Answer: enzymatic_activity, percent_of_wt [1]: abolishes, 0.9 ± 0.8 vs 100 ± 21.6; expression_or_secretion, percent_of_wt [2]: no change, 109.0 ± 16.9 vs 100.0 ± 8.2
